Among the data in article PMC3481325 are t½ of the HLA A*0201-peptide complex values, retold here.

The target of the test is HLA A*0201 (soluble, the MHC part of the HLA A*0201-peptide complexes). Nature of the test: SPR. Background: In SPR one partner is held on a chip, and binding of the other changes the refractive index at the surface.

For the substance […] peptide (Melan A 26-35), the t½ of the HLA A*0201-peptide complex was 8 h.
